Experimental data from patent US20250002610A1 (Genmab, published 2025).

T1: human FAPα (Fibroblast activation protein alpha), cell surface expressed (human, UniProt Q12884 1-760)
T1 construct: Endogenous on human lung fibroblasts and CAFs
T1 sequence: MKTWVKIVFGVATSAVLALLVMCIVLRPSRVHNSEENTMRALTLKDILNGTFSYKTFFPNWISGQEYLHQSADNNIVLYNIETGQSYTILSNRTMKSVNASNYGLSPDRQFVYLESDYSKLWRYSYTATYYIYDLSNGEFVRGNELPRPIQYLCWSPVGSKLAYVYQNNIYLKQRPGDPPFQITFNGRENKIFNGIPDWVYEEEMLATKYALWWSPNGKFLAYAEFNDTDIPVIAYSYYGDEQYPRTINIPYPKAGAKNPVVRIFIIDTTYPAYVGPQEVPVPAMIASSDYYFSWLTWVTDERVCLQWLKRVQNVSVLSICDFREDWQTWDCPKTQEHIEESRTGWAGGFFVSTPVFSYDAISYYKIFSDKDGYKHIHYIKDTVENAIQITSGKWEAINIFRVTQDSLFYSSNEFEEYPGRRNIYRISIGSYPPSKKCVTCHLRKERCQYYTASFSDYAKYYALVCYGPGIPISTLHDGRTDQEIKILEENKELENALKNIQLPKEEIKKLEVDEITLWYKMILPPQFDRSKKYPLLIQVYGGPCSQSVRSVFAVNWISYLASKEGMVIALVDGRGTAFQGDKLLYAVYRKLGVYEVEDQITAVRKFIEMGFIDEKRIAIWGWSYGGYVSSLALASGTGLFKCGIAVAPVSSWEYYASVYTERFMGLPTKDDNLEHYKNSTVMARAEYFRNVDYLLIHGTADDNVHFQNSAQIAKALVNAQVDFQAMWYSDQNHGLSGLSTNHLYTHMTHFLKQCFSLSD


Target: T1, human FAPα (Fibroblast activation …)
Experiment: flow cytometry, human lung fibroblasts, n = 3
Protocol: Binding of bispecific or monoclonal antibodies carrying the anti-FAPα arm derived from IgG1-FAPα-FERL (BisG1-FAPα-FERL/DR4-FERR, BisG1-FAPα-FERL/b12-FERR, and IgG1-FAPα-FERL) to cell surface expressed human FAPα was analyzed by flow cytometry using human lung fibroblasts and CAFs, which endogenously express FAPα. BisG1-b12-FERL/b12-FERR was used as negative control.
Human lung fibroblasts and CAFs (50,000 cells/well) were seeded in 96-Well round bottom plates (Greiner Bio-one, Cat #650101). Antibody dilutions were prepared using fluorescence-activated cell sorting (FACS) buffer, consisting of phosphate buffer saline (PBS, Lonza, Cat #BE17-517Q)+1% Bovine Serum Albumin (BSA, Roche, Cat #10735086001)+0.02% Sodium Azide (Bio-World, Cat #41920044-3). Plates were centrifuged, supernatant was removed, cells were resuspended in 50 μL of human Fc Block (BD, Cat #564220, diluted 1:100 in FACS buffer) and 50 μL of viability stain TO-PRO-3 Iodide (Thermo Fisher, Cat #T3605, diluted 1: 25,000 in FACS buffer), and incubated for 15 min at 4° C. Plates were washed three times with FACS buffer. Plates were centrifuged, supernatant was removed, cells were resuspended in 50 μL of antibody dilutions (concentration range 90-0.0005 μg/mL, three-fold dilution steps using FACS buffer) of BisG1-FAPα-FERL/DR4-FERR, BisG1-FAPα-FERL/b12-FERR, BisG1-b12-FERL/b12-FERR (top six concentrations only for CAFs culture) or IgG1-FAPα-FERL (top four concentrations only for CAFs culture) and incubated for 30 min at 4° C. Cells were washed three times with FACS buffer and resuspended in 50 μL of Fluorescein isothiocyanate (FITC)-labeled polyclonal antibody goat anti-mouse IgG1 (Jackson Immuno Research, Cat #109-096-097, diluted 1:100 in FACS buffer). […] Antibody binding to viable cells (TO-PRO-3 negative) was analyzed by flow cytometry on a FACSCelesta™ (BD biosciences) and data were processed using FlowJo_v10.8.1 (FlowJo LLC). Geomean fluorescence intensity, gMFI, was determined and visualized using GraphPad Prism.

Binder	EC50
BisG1-FAPα-FERL/DR4-FERR (bispecific antibody, human IgG1, kappa, lambda, Human IgG1 bispecific made by controlled Fab-arm exchange of IgG1-FAPα-FERL and IgG1-DR4-FERR; monovalent for FAPα and for DR4; also called GEN1057) heavy 1: EVQLLESGGGLVQPGGSPRLSCEASGFTFSSYALSWVRQAPGKGLEWVSAISGSGGGRYYADSVKGRFTISRDNSKNTLFLQMNSLRAEDTAVYYCAKEGYSSSGTYWDHWGQGTLVTVSSASTKGPSVFPLAPSSKSTSGGTAALGCLVKDYFPEPVTVSWNSGALTSGVHTFPAVLQSSGLYSLSSVVTVPSSSLGTQTYICNVNHKPSNTKVDKRVEPKSCDKTHTCPPCPAPEFERGPSVFLFPPKPKDTLMISRTPEVTCVVVDVSHEDPEVKFNWYVDGVEVHNAKTKPREEQYNSTYRVVSVLTVLHQDWLNGKEYKCKVSNKALPAPIEKTISKAKGQPREPQVYTLPPSREEMTKNQVSLTCLVKGFYPSDIAVEWESNGQPENNYKTTPPVLDSDGSFLLYSKLTVDKSRWQQGNVFSCSVMHEALHNHYTQKSLSLSPG light 1: AIQMTQSPSSVSASVGDRVTITCRASQGVSSWLAWYQQKPGRAPKLLIYVASTLQSGVPSRFSGSGSGTDFTLTINSLQPEDFATYYCQQANSFPPTFGQGTRLEMKRTVAAPSVFIFPPSDEQLKSGTASVVCLLNNFYPREAKVQWKVDNALQSGNSQESVTEQDSKDSTYSLSSTLTLSKADYEKHKVYACEVTHQGLSSPVTKSFNRGEC heavy 2: QVQLQESGPGLVKPSGTLSLTCAVSGGSISSYSWWSWIRQPPGKGLEWIGELYHSGSTNYNPSLKSRVTISVDKSKNQFSLKLRSVTAADTAVYYCVRGVATIDYWGQGTLVTVSSASTKGPSVFPLAPSSKSTSGGTAALGCLVKDYFPEPVTVSWNSGALTSGVHTFPAVLQSSGLYSLSSVVTVPSSSLGTQTYICNVNHKPSNTKVDKRVEPKSCDKTHTCPPCPAPEFERGPSVFLFPPKPKDTLMISRTPEVTCVVVDVSHEDPEVKFNWYVDGVEVHNAKTKPREEQYNSTYRVVSVLTVLHQDWLNGKEYKCKVSNKALPAPIEKTISKAKGQPREPQVYTLPPSREEMTKNQVSLTCLVKGFYPSDIAVEWESNGQPENNYKTTPPVLDSDGSFFLYSRLTVDKSRWQQGNVFSCSVMHEALHNHYTQKSLSLSPG light 2: QSALTQPPSASGSPGQSVTISCTGTSSDVGGYNFVSWYQQDPGKAPKLLIYEVTKRPSGVPDRFSGSKSGNTASLTVSGLQAEDEADYYCSSYAGSNNVMFGGGTKLTVLGQPKAAPSVTLFPPSSEELQANKATLVCLISDFYPGAVTVAWKADSSPVKAGVETTTPSKQSNNKYAASSYLSLTPEQWKSHRSYSCQVTHEGSTVEKTVAPTECS	0.059 µg/mL
BisG1-FAPα-FERL/b12-FERR (bispecific antibody, human IgG1, kappa) heavy 1: EVQLLESGGGLVQPGGSPRLSCEASGFTFSSYALSWVRQAPGKGLEWVSAISGSGGGRYYADSVKGRFTISRDNSKNTLFLQMNSLRAEDTAVYYCAKEGYSSSGTYWDHWGQGTLVTVSSASTKGPSVFPLAPSSKSTSGGTAALGCLVKDYFPEPVTVSWNSGALTSGVHTFPAVLQSSGLYSLSSVVTVPSSSLGTQTYICNVNHKPSNTKVDKRVEPKSCDKTHTCPPCPAPEFERGPSVFLFPPKPKDTLMISRTPEVTCVVVDVSHEDPEVKFNWYVDGVEVHNAKTKPREEQYNSTYRVVSVLTVLHQDWLNGKEYKCKVSNKALPAPIEKTISKAKGQPREPQVYTLPPSREEMTKNQVSLTCLVKGFYPSDIAVEWESNGQPENNYKTTPPVLDSDGSFLLYSKLTVDKSRWQQGNVFSCSVMHEALHNHYTQKSLSLSPG light 1: AIQMTQSPSSVSASVGDRVTITCRASQGVSSWLAWYQQKPGRAPKLLIYVASTLQSGVPSRFSGSGSGTDFTLTINSLQPEDFATYYCQQANSFPPTFGQGTRLEMKRTVAAPSVFIFPPSDEQLKSGTASVVCLLNNFYPREAKVQWKVDNALQSGNSQESVTEQDSKDSTYSLSSTLTLSKADYEKHKVYACEVTHQGLSSPVTKSFNRGEC heavy 2: QVQLVQSGAEVKKPGASVKVSCQASGYRFSNFVIHWVRQAPGQRFEWMGWINPYNGNKEFSAKFQDRVTFTADTSANTAYMELRSLRSADTAVYYCARVGPYSWDDSPQDNYYMDVWGKGTTVIVSSASTKGPSVFPLAPSSKSTSGGTAALGCLVKDYFPEPVTVSWNSGALTSGVHTFPAVLQSSGLYSLSSVVTVPSSSLGTQTYICNVNHKPSNTKVDKRVEPKSCDKTHTCPPCPAPEFERGPSVFLFPPKPKDTLMISRTPEVTCVVVDVSHEDPEVKFNWYVDGVEVHNAKTKPREEQYNSTYRVVSVLTVLHQDWLNGKEYKCKVSNKALPAPIEKTISKAKGQPREPQVYTLPPSREEMTKNQVSLTCLVKGFYPSDIAVEWESNGQPENNYKTTPPVLDSDGSFFLYSRLTVDKSRWQQGNVFSCSVMHEALHNHYTQKSLSLSPG light 2: EIVLTQSPGTLSLSPGERATFSCRSSHSIRSRRVAWYQHKPGQAPRLVIHGVSNRASGISDRFSGSGSGTDFTLTITRVEPEDFALYYCQVYGASSYTFGQGTKLERKRTVAAPSVFIFPPSDEQLKSGTASVVCLLNNFYPREAKVQWKVDNALQSGNSQESVTEQDSKDSTYSLSSTLTLSKADYEKHKVYACEVTHQGLSSPVTKSFNRGEC	0.048 µg/mL
IgG1-FAPα-FERL (antibody, Bivalent monoclonal IgG1 kappa) heavy: EVQLLESGGGLVQPGGSPRLSCEASGFTFSSYALSWVRQAPGKGLEWVSAISGSGGGRYYADSVKGRFTISRDNSKNTLFLQMNSLRAEDTAVYYCAKEGYSSSGTYWDHWGQGTLVTVSSASTKGPSVFPLAPSSKSTSGGTAALGCLVKDYFPEPVTVSWNSGALTSGVHTFPAVLQSSGLYSLSSVVTVPSSSLGTQTYICNVNHKPSNTKVDKRVEPKSCDKTHTCPPCPAPEFERGPSVFLFPPKPKDTLMISRTPEVTCVVVDVSHEDPEVKFNWYVDGVEVHNAKTKPREEQYNSTYRVVSVLTVLHQDWLNGKEYKCKVSNKALPAPIEKTISKAKGQPREPQVYTLPPSREEMTKNQVSLTCLVKGFYPSDIAVEWESNGQPENNYKTTPPVLDSDGSFLLYSKLTVDKSRWQQGNVFSCSVMHEALHNHYTQKSLSLSPG light: AIQMTQSPSSVSASVGDRVTITCRASQGVSSWLAWYQQKPGRAPKLLIYVASTLQSGVPSRFSGSGSGTDFTLTINSLQPEDFATYYCQQANSFPPTFGQGTRLEMKRTVAAPSVFIFPPSDEQLKSGTASVVCLLNNFYPREAKVQWKVDNALQSGNSQESVTEQDSKDSTYSLSSTLTLSKADYEKHKVYACEVTHQGLSSPVTKSFNRGEC	0.022 µg/mL
